Laboratory results reported in IntAct's records for PubMed 15328537.

B1: Emerin (Homo sapiens), P50402 (parent)
chain: MDNYADLSDTELTTLLRRYNIPHGPVVGSTRRLYEKKIFEYETQRRRLSPPSSSAASSYSFSDLNSTRGDADMYDLPKKEDALLYQSKGYNDDYYEESYFTTRTYGEPESAGPSRAVRQSVTSFPDADAFHHQVHDDDLLSSSEEECKDRERPMYGRDSAYQSITHYRPVSASRSSLDLSYYPTSSSTSFMSSSSSSSSWLTRRAIRPENRAPGAGLGQDRQVPLWGQLLLFLVFVIVLFFIYHFMQAEEGNPF

Variants of: B1
Conditions: with acts_rabit ACTA1, P68135

| effect of a mutation on the interaction | Variant |
| --- | --- |
| disrupting interaction | Q133H |
